Experimental data as given in patent publication US20080039402A1 (UNIVERSITE BORDEAUX 2, published 2008).
Positions of bridges follow the written chain, without caps; N, C: chain ends. Non-standard residues stand in square brackets, D forms with d. No end group written: not given here. βAla = NCCC(=O)O; Sar = CNCC(=O)O

T1: CD23 (FCεRII) on human CD23+ cells (human, UniProt P06734 1-321)
T1 sequence (looked up): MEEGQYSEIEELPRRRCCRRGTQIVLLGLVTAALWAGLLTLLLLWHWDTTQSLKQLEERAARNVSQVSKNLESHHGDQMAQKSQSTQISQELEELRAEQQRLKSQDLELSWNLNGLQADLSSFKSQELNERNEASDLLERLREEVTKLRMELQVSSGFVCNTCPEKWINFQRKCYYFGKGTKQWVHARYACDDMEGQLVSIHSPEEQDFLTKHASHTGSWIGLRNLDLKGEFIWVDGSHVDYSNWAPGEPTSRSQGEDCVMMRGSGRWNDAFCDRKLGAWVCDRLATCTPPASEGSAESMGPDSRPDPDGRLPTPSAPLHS


The molecules below were run against T1, CD23 (FCεRII) on human CD23+ cells (assay: cytofluorometry; CD23+ cells pre-incubated with peptide, then IgE/anti-IgE-FITC; Experiment 1).

| % of fluorescence intensity recovered, compared to cells incubated in medium alone [%] | Molecule |
| --- | --- |
| 73 | unrelated control peptide (pNu) |

The molecules below were run against T1, CD23 (FCεRII) on human CD23+ cells (assay: cytofluorometry; CD23+ cells pre-incubated with peptide, then CD23-Ab; Experiment 3).

| % of fluorescence intensity recovered, compared to cells incubated in medium alone [%] | Molecule |
| --- | --- |
| 94 | unrelated control peptide (pNu) |

The molecules below were run against T1, CD23 (FCεRII) on human CD23+ cells (assay: cytofluorometry; CD23+ cells pre-incubated with peptide, then CD23-Ab; Experiment 2).

| % of fluorescence intensity recovered, compared to cells incubated in medium alone [%] | Molecule |
| --- | --- |
| 88 | unrelated control peptide (pNu) |

These molecules were tested against T1, CD23 (FCεRII) on human CD23+ cells (assay: cytofluorometry; CD23+ cells pre-incubated with peptide, then IgE/anti-IgE-FITC; Experiment 2).

| % of fluorescence intensity recovered, compared to cells incubated in medium alone [%] | Molecule |
| --- | --- |
| 110 | unrelated control peptide (pNu) |

These molecules were tested against T1, CD23 (FCεRII) on human CD23+ cells (assay: cell-based or functional assay).

| Molecule | % Inhibition (nitrites; inhibition of iNOS production by activated CD23+ macrophages) [%] | TNF-α in supernatant of CD23+ cells, pNu + CD23-Ab, Experiment 1 [pg TNF-α/ml] | TNF-α in supernatant of CD23+ cells, pNu + CD23-Ab, Experiment 2 [pg TNF-α/ml] | [NO2-], macrophages from synovial fluid of Rheumatoid Arthritis patients, pNu + CD23-Ab, Experiment 1 [µM] | [NO2-], macrophages from synovial fluid of Rheumatoid Arthritis patients, pNu + CD23-Ab, Experiment 2 [µM] |
| --- | --- | --- | --- | --- | --- |
| Compound 491 (Ac w n CO2H) (peptide) | 94 |  |  |  |  |
| Compound 489 (NH2 G[allyl-] N W G[allyl-]) (peptide) | 62 |  |  |  |  |
| Compound 411 (Ac N W CO2H) (peptide) | 84 |  |  |  |  |
| HENAPS [Compound 436] | 60 |  |  |  |  |
| HENWGS (cyclic H2T (N-terminus amino group to C-terminus carboxyl group linkage)) [Compound 299] | 74 |  |  |  |  |
| HENWKS [Compound 333] | 69 |  |  |  |  |
| FHKPWRA [P30G (F H K P W R A)] | 55 |  |  |  |  |
| cyclo(HENW[Sar]S) (SMILES CN1CC(=O)N[C@@H](CO)C(=O)N[C@@H](Cc2c[nH]cn2)C(=O)N[C@@H](CCC(=O)O)C(=O)N[C@@H](CC(N)=O)C(=O)N[C@@H](Cc2c[nH]c3ccccc23)C1=O) [Compound 398] | 74 |  |  |  |  |
| FHENWPS [FHENWPS peptide (p30A)] | 74 |  |  |  |  |
| FHENW[βAla]S [Compound 328] | 26 |  |  |  |  |
| HENWPS [P30K (H E N W P S)] | 74 |  |  |  |  |
| HENWS (cyclic H2T (N-terminus amino group to C-terminus carboxyl group linkage)) [Compound 437] | 56 |  |  |  |  |
| FHENWP [P30L (F H E N W P)] | 78 |  |  |  |  |

Now from value to molecule:

| % Inhibition (nitrites; inhibition of iNOS production by activated CD23+ macrophages) [%] | TNF-α in supernatant of CD23+ cells, pNu + CD23-Ab, Experiment 1 [pg TNF-α/ml] | TNF-α in supernatant of CD23+ cells, pNu + CD23-Ab, Experiment 2 [pg TNF-α/ml] | [NO2-], macrophages from synovial fluid of Rheumatoid Arthritis patients, pNu + CD23-Ab, Experiment 1 [µM] | [NO2-], macrophages from synovial fluid of Rheumatoid Arthritis patients, pNu + CD23-Ab, Experiment 2 [µM] | Molecule |
| --- | --- | --- | --- | --- | --- |
|  | 162 | 132 | 15.2 | 14.4 | unrelated control peptide (pNu) |
| 81 |  |  |  |  | Compound 490 (G[allyl-] N W G[allyl-] S) (peptide) |
| 77 |  |  |  |  | Compound 492 (Ac n w CO2H) (peptide) |
| 61 |  |  |  |  | Compound 410 (Ac N W BetaA CO2H) (peptide) |
| 60 |  |  |  |  | HENWES (lactam N-5) [Compound 327] |
| 68 |  |  |  |  | FHEFWPT [FHEFWPT (p30D)] |
| 76 |  |  |  |  | FHENWPT [P30M (F H E N W P T)] |
| 43 |  |  |  |  | FHEAWPS [Compound 331] |
| 73 |  |  |  |  | FHEQWPS [P30O (F H E Q W P S)] |
| 65 |  |  |  |  | FHSQWPN [FHSQWPN (p30E)] |

The molecules below were run against T1, CD23 (FCεRII) on human CD23+ cells (assay: cytofluorometry; CD23+ cells pre-incubated with peptide, then CD23-Ab; Experiment 1).

| % of fluorescence intensity recovered, compared to cells incubated in medium alone [%] | Molecule |
| --- | --- |
| 120 | unrelated control peptide (pNu) |

What follows are molecules tested against T1, CD23 (FCεRII) on human CD23+ cells (assay: inhibition of anti-CD23-FITC mAb binding to CD23+ cells; Activity grade).

| Molecule | binding result |
| --- | --- |
| Ac-HENWPS-NH2 [Compound 243] | binds |
| RENWPS [Compound 384] | binds |
| HQNWPS-NH2 [Compound 400] | binds |
| F[βAla]ENWPS [Compound 339] | binds |
| HNEWPS [Compound 288] | binds |
| FHENWAS [Compound 316] | binds |
| FHENWPA [Compound 349] | binds |
| HENWPS-NH2 [Compound 244] | binds |
| HENWP-NH2 [Compound 249] | binds |
| FH[βAla]NWPS [Compound 340] | binds |
| SPWNEHF (Comment 'scrambled'; L-amino acids, reverse order of FHENWPS) [Compound 397 (scrambled)] | binds |
| HENWPSG (cyclic H2T (N-terminus amino group to C-terminus carboxyl group linkage)) [Compound 298] | binds |

Further lines, results first:

| binding result | Molecule |
| --- | --- |
| binds | HEQWPS [Compound 364] |
| binds | HPNWRS [Compound 281] |
| binds | HCNWCS (Cys at residues 2 and 5; no disulfide is stated for this compound) [Compound 290] |
| binds | HEPWRS [Compound 289] |
| binds | FHANWPS [Compound 337] |
| binds | FAENWPS [Compound 338] |
